33 molecules from publication PMC6555819, “Comprehensive study of nuclear receptor DNA binding provides a revised framework for understanding receptor specificity” can be followed below.

B1: NRC3_random_hg19_333_o1 (dsDNA)
DNA 1: GCATGCCTGTAATCCCAGCTACTTGGGAGGCTGAGAGCGATTGACAGCGTAGAATGAAGG
DNA 2: CCTTCATTCTACGCTGTCAATCGCTCTCAGCCTCCCAAGTAGCTGGGATTACAGGCATGC
B2: NRC3_random_hg19_131_o1 (dsDNA)
DNA 1: GCTCCCTCAAGCTCTCTGAATCTCAGAGTCAGCATCGCGATTGACAGCGTAGAATGAAGG
DNA 2: CCTTCATTCTACGCTGTCAATCGCGATGCTGACTCTGAGATTCAGAGAGCTTGAGGGAGC
B3: NRC3_wobSeed65_DR2_T13C_o1 (dsDNA)
DNA 1: GCATATGTAGGTCATCGGGTCATTCAGTTTGCGCATGCGATTGACAGCGTAGAATGAAGG
DNA 2: CCTTCATTCTACGCTGTCAATCGCATGCGCAAACTGAATGACCCGATGACCTACATATGC
B4: NRC3_wobSeed29_DR1_T5A_o1 (dsDNA)
DNA 1: GCGCATACGGGTCAAAGGTTATAGCATGAATAGAATGCGATTGACAGCGTAGAATGAAGG
DNA 2: CCTTCATTCTACGCTGTCAATCGCATTCTATTCATGCTATAACCTTTGACCCGTATGCGC
B5: NRC3_wobSeed29_DR1_A23G_o1 (dsDNA)
DNA 1: B4 DNA 1 with A5T, A23G
DNA 2: B4 DNA 2 with T38C, T56A
B6: NRC3_random_hg19_305_o1 (dsDNA)
DNA 1: GCGACTGCACTCCAGCCTGGGCAATAGAGTGAGACTGCGATTGACAGCGTAGAATGAAGG
DNA 2: CCTTCATTCTACGCTGTCAATCGCAGTCTCACTCTATTGCCCAGGCTGGAGTGCAGTCGC
B7: NRC3_random_hg19_235_o1 (dsDNA)
DNA 1: GCGCTGGGAGGCAACTGCCATTGGCATGCCATGCCAGCGATTGACAGCGTAGAATGAAGG
DNA 2: CCTTCATTCTACGCTGTCAATCGCTGGCATGGCATGCCAATGGCAGTTGCCTCCCAGCGC
B8: NRC3_wobSeed25_DR1_A23G_o1 (dsDNA)
DNA 1: GCCAAACTAGGTCAAAGGTCAAGGTCGAGCCAACCAGCGATTGACAGCGTAGAATGAAGG
DNA 2: CCTTCATTCTACGCTGTCAATCGCTGGTTGGCTCGACCTTGACCTTTGACCTAGTTTGGC
B9: NRC3_wobSeed25_DR1_A23C_o1 (dsDNA)
DNA 1: B8 DNA 1 with G23C
DNA 2: B8 DNA 2 with C38G
B10: NRC3_wobSeed25_DR1_A22G_o1 (dsDNA)
DNA 1: B8 DNA 1 with A22G, G23A
DNA 2: B8 DNA 2 with C38T, T39C
B11: NRC3_wobSeed33_DR1_A13C_o1 (dsDNA)
DNA 1: GCATCTCTAGGTCAAAGTTCAGTGAATCCCGAGGATGCGATTGACAGCGTAGAATGAAGG
DNA 2: CCTTCATTCTACGCTGTCAATCGCATCCTCGGGATTCACTGAACTTTGACCTAGAGATGC
B12: NRC3_wobSeed33_DR1_A13G_o1 (dsDNA)
DNA 1: B11 DNA 1 with C13G
DNA 2: B11 DNA 2 with G48C
B13: NRC3_wobSeed73_DR3_A4T_o1 (dsDNA)
DNA 1: GCCTAACTAGGTCACAGAGGTCAAAGTCCGTGCGTAGCGATTGACAGCGTAGAATGAAGG
DNA 2: CCTTCATTCTACGCTGTCAATCGCTACGCACGGACTTTGACCTCTGTGACCTAGTTAGGC
B14: NRC3_wobSeed97_DR4_G27A_o1 (dsDNA)
DNA 1: GCCAAACTAGGTCACGAAAGGTCAAAATCGAATGACGCGATTGACAGCGTAGAATGAAGG
DNA 2: CCTTCATTCTACGCTGTCAATCGCGTCATTCGATTTTGACCTTTCGTGACCTAGTTTGGC
B15: NRC3_wobSeed97_DR4_C29T_o1 (dsDNA)
DNA 1: B14 DNA 1 with A27G, C29T
DNA 2: B14 DNA 2 with G32A, T34C
B16: NRC3_wobSeed97_DR4_A4T_o1 (dsDNA)
DNA 1: B14 DNA 1 with A4T, A27G
DNA 2: B14 DNA 2 with T34C, T57A
B17: NRC3_wobSeed97_DR4_C7G_o1 (dsDNA)
DNA 1: B14 DNA 1 with C7G, A27G
DNA 2: B14 DNA 2 with T34C, G54C
B18: NRC3_wobSeed121_DR5_C7G_o1 (dsDNA)
DNA 1: GCCAAAGTAGGTCACCGGAAGGTCAAAGTCCGCATGGCGATTGACAGCGTAGAATGAAGG
DNA 2: CCTTCATTCTACGCTGTCAATCGCCATGCGGACTTTGACCTTCCGGTGACCTACTTTGGC
B19: NRC3_wobSeed42_DR1_A8T_o1 (dsDNA)
DNA 1: GCTATACTGGGTCAAAGGCCAGAGTACGAATGTCGAGCGATTGACAGCGTAGAATGAAGG
DNA 2: CCTTCATTCTACGCTGTCAATCGCTCGACATTCGTACTCTGGCCTTTGACCCAGTATAGC
B20: NRC3_wobSeed39_DR1_A19C_o1 (dsDNA)
DNA 1: GCCGAACTAGGTCAAAGGCCAGTGAAAGGCGACGTAGCGATTGACAGCGTAGAATGAAGG
DNA 2: CCTTCATTCTACGCTGTCAATCGCTACGTCGCCTTTCACTGGCCTTTGACCTAGTTCGGC
B21: NRC3_wobSeed39_DR1_G22C_o1 (dsDNA)
DNA 1: B20 DNA 1 with C19A, G22C
DNA 2: B20 DNA 2 with C39G, G42T
B22: NRC3_wobSeed31_DR1_A13G_o1 (dsDNA)
DNA 1: GCTCATATAGGTGAAAGGTGAAAGTCGGTGTGGTAAGCGATTGACAGCGTAGAATGAAGG
DNA 2: CCTTCATTCTACGCTGTCAATCGCTTACCACACCGACTTTCACCTTTCACCTATATGAGC
B23: NRC3_wobSeed31_DR1_A13T_o1 (dsDNA)
DNA 1: B22 DNA 1 with G13T
DNA 2: B22 DNA 2 with C48A
B24: NRC3_random_hg19_220_o1 (dsDNA)
DNA 1: GCTTGGTTGCAAGCAATACAAAGCAACTCTTGCTAAGCGATTGACAGCGTAGAATGAAGG
DNA 2: CCTTCATTCTACGCTGTCAATCGCTTAGCAAGAGTTGCTTTGTATTGCTTGCAACCAAGC
B25: NRC3_random_hg19_88_o1 (dsDNA)
DNA 1: GCAGATTGCTGGCCAACTGCTCCTGATCCATTACTAGCGATTGACAGCGTAGAATGAAGG
DNA 2: CCTTCATTCTACGCTGTCAATCGCTAGTAATGGATCAGGAGCAGTTGGCCAGCAATCTGC
B26: NRC3_random_hg19_118_o1 (dsDNA)
DNA 1: GCTTGTCACTTGTCATTCCTGCCAAGAGAGCTCTATGCGATTGACAGCGTAGAATGAAGG
DNA 2: CCTTCATTCTACGCTGTCAATCGCATAGAGCTCTCTTGGCAGGAATGACAAGTGACAAGC
B27: NRC3_wobSeed36_DR1_C23G_o1 (dsDNA)
DNA 1: GCCCGACTGGGGCAAAGGTTACGATACTCAGTACGAGCGATTGACAGCGTAGAATGAAGG
DNA 2: CCTTCATTCTACGCTGTCAATCGCTCGTACTGAGTATCGTAACCTTTGCCCCAGTCGGGC
B28: NRC3_wobSeed36_DR1_G5C_o1 (dsDNA)
DNA 1: B27 DNA 1 with G5C, G23C
DNA 2: B27 DNA 2 with C38G, C56G
B29: NRC3_random_hg19_81_o1 (dsDNA)
DNA 1: GCGACTTTGTTGCCTAGGCTGGAATCTATCATGGCTGCGATTGACAGCGTAGAATGAAGG
DNA 2: CCTTCATTCTACGCTGTCAATCGCAGCCATGATAGATTCCAGCCTAGGCAACAAAGTCGC
B30: NRC3_wobSeed30_DR1_C8T_o1 (dsDNA)
DNA 1: GCACTAGTAGGCCAAGGGTCACTCAAGATTAGTCCGGCGATTGACAGCGTAGAATGAAGG
DNA 2: CCTTCATTCTACGCTGTCAATCGCCGGACTAATCTTGAGTGACCCTTGGCCTACTAGTGC
B31: NRC3_wobSeed30_DR1_G16A_o1 (dsDNA)
DNA 1: B30 DNA 1 with T8C, G16A
DNA 2: B30 DNA 2 with C45T, A53G
B32: NRC3_wobSeed49_DR2_T26G_o1 (dsDNA)
DNA 1: GCCAAACTAGGTCAAGAGGTCAAAGGCCGCTTCCCGGCGATTGACAGCGTAGAATGAAGG
DNA 2: CCTTCATTCTACGCTGTCAATCGCCGGGAAGCGGCCTTTGACCTCTTGACCTAGTTTGGC
B33: NRC3_wobSeed49_DR2_A15C_o1 (dsDNA)
DNA 1: B32 DNA 1 with A15C, G26T
DNA 2: B32 DNA 2 with C35A, T46G

Positions count from the first letter of the chain named.

PPARg:RXRa, sequence (P37231 29-505, chain 1 of 2): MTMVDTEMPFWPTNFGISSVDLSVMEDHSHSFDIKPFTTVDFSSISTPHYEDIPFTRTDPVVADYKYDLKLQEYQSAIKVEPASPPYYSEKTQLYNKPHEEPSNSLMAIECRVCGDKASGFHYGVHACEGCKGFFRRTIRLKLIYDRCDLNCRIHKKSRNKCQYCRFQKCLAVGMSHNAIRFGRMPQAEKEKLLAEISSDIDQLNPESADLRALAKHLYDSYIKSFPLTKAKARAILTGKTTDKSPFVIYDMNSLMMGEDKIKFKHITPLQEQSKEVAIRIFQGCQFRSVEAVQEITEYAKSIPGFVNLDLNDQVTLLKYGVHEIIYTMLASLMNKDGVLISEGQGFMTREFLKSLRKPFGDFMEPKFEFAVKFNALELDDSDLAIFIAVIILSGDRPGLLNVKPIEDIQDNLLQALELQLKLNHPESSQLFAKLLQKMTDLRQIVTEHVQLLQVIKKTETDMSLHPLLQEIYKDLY
PPARg:RXRa, sequence (P19793 whole entry, chain 2 of 2): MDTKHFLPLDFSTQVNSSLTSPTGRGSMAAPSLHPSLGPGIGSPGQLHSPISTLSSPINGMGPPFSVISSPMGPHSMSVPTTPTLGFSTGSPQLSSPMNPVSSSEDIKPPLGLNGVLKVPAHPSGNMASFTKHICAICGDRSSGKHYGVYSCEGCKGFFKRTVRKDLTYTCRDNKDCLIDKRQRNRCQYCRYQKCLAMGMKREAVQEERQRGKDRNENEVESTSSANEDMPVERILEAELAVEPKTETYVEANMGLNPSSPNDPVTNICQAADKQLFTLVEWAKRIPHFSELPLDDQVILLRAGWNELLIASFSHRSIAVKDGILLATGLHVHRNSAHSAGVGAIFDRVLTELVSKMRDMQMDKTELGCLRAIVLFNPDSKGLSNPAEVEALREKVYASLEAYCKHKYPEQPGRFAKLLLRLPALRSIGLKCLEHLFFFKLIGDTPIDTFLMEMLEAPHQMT

The data set has as its target PPARg:RXRa (Homo sapiens, UniProt P37231;P19793 full;full). The data set can be described thus: no ligand; PBM; 180 nM : 90 nM RXRa; PBS pH 7.4, 2% milk, 0.02% Triton X-100, 1 mM DTT, BSA, 0.4 mg/ml salmon testes DNA. Conditions: tags: His kept;His cleaved; copies: 1;1; label: surface-attached array probe.
Turning to B1, the binding signal is -0.21 PBM z-score against 500 random probes. For B2, the binding signal is -0.66 PBM z-score against 500 random probes. For B3, the binding signal is 10.2 PBM z-score against 500 random probes. The figure for B4 is 12.2 PBM z-score against 500 random probes; for B5 it is 12 PBM z-score against 500 random probes.

Take B6: the binding signal is -0.27 PBM z-score against 500 random probes. With B7 the figure was -0.53 PBM z-score against 500 random probes; with B8, 14.4 PBM z-score against 500 random probes; with B9, 14.2 PBM z-score against 500 random probes. With B10, the binding signal is 14.2 PBM z-score against 500 random probes. The figure for B11 is 11.7 PBM z-score against 500 random probes.

For the molecule B12, the binding signal is 10.7 PBM z-score against 500 random probes. The figure for B13 is 10.9 PBM z-score against 500 random probes; for B14 it is 10.9 PBM z-score against 500 random probes. With B15 the figure was 10.9 PBM z-score against 500 random probes; with B16, 10.8 PBM z-score against 500 random probes; with B17, 10.8 PBM z-score against 500 random probes. Take B18: the binding signal was 10.4 PBM z-score against 500 random probes. The figure for B19 is 10.8 PBM z-score against 500 random probes; for B20 it is 11.3 PBM z-score against 500 random probes; for B21 it is 11.2 PBM z-score against 500 random probes.

Take B22: the binding signal is 11.6 PBM z-score against 500 random probes.

With B23, the binding signal was 10.8 PBM z-score against 500 random probes.

As to B24, the binding signal is -0.18 PBM z-score against 500 random probes. With B25 the figure was -0.23 PBM z-score against 500 random probes; with B26, -0.38 PBM z-score against 500 random probes. With B27, the binding signal was 12.2 PBM z-score against 500 random probes.

Turning to B28, the binding signal is 12.2 PBM z-score against 500 random probes. Regarding B29, the binding signal is -0.16 PBM z-score against 500 random probes. In the case of B30, the binding signal was 10.9 PBM z-score against 500 random probes. The figure for B31 is 10.2 PBM z-score against 500 random probes; for B32 it is 10.9 PBM z-score against 500 random probes. With B33 the figure was 10.5 PBM z-score against 500 random probes.
